Data on one substance can be found in article doi:10.1101/2020.02.24.961524.

In this experiment the target is N-terminally SNAP-tagged GLP-1R (glucagon-like peptide-1 receptor) (UniProt P43220). The experiment is described as follows: FRET or BRET. (BRET reads energy transfer from a luciferase to a nearby fluorophore.)
Chain of UniProt P43220 (P43220 24-463): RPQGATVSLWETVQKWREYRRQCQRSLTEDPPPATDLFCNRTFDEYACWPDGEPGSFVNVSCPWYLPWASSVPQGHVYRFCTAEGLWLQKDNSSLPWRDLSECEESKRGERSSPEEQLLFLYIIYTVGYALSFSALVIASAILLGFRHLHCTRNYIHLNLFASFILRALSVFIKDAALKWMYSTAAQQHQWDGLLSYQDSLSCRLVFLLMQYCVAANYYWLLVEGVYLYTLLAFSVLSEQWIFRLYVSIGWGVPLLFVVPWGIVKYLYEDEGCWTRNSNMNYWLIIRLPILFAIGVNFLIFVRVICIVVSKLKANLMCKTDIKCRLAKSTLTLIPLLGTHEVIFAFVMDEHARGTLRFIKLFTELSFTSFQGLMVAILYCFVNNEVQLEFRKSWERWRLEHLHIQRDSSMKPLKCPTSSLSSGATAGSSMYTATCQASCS

For “exendin-4 (from UniProt P26349 48-87) (peptide)”, the fold affinity relative to GLP-1 stood at 5 fold.
